Results published in patent US20220073586A1.

Molecular target: PD-L1 antigen (coated on 96-well immunoplate) (UniProt Q9NZQ7)
Experiment: single antigen ELISA, PD-L1 coated at 1 ug/mL, detection with anti-hFc-HRP

PD-L1 antigen (coated on 96-well immunoplate), sequence (Q9NZQ7 19-238 limits assumed): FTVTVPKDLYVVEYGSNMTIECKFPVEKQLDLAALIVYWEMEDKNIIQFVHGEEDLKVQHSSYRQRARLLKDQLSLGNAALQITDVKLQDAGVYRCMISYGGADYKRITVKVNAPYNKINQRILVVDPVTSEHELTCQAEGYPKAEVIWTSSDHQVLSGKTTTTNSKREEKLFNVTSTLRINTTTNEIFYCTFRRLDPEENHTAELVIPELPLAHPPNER

Tecentriq (Genetech, atezolizumab, anti-PD-L1 antibody)
EC50 (read off the curve): 0.03 mg/L
